Assay [1] has as its target oxygen-cleaved pyruvate formate-lyase mimic (cPFL, residues 1-733) (E. coli).
Assay [2] shares this target. The source holds these as a separate data set.
Assay [3] concerns the target truncated pyruvate formate-lyase (tPFL, residues 1-695) (E. coli).
The target in assay [4] is oxygen-cleaved pyruvate formate-lyase mimic (cPFL, residues 1-733) (E. coli). Put plainly: ITC; YfiD variant in the syringe titrated into the PFL variant in the cell, matched buffer; MicroCal iTC200, 25 °C, 20 injections of 2.0 μl. On the technique in general: ITC needs no label: the signal is the heat of the interaction.

As a reminder, the Kd is the equilibrium constant for the complex coming apart. A lower Kd goes with a tighter complex.

Chain of oxygen-cleaved pyruvate formate-lyase mimic (cPFL, residues 1-733) (E. coli) (P09373 2-734 limits assumed): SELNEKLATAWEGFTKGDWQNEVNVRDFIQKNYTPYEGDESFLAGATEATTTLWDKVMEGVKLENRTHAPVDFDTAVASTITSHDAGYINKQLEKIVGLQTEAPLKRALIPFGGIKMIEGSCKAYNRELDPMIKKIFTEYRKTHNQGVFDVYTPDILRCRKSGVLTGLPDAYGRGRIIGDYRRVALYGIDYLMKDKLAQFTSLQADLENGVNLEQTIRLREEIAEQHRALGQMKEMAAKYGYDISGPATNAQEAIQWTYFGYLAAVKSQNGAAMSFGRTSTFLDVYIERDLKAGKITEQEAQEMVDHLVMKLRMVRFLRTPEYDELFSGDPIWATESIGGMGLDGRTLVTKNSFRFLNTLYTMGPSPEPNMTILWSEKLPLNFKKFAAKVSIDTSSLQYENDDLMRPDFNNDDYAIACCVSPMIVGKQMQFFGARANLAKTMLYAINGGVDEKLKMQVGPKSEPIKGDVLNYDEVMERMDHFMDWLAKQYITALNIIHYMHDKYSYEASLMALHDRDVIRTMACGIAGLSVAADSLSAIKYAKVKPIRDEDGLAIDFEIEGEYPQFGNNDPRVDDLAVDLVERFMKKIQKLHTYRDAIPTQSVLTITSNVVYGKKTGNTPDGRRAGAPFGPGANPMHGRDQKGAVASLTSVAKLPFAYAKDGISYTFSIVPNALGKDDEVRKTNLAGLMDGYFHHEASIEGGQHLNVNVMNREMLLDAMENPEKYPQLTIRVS
Chain of truncated pyruvate formate-lyase (tPFL, residues 1-695) (E. coli) (P09373 1-695): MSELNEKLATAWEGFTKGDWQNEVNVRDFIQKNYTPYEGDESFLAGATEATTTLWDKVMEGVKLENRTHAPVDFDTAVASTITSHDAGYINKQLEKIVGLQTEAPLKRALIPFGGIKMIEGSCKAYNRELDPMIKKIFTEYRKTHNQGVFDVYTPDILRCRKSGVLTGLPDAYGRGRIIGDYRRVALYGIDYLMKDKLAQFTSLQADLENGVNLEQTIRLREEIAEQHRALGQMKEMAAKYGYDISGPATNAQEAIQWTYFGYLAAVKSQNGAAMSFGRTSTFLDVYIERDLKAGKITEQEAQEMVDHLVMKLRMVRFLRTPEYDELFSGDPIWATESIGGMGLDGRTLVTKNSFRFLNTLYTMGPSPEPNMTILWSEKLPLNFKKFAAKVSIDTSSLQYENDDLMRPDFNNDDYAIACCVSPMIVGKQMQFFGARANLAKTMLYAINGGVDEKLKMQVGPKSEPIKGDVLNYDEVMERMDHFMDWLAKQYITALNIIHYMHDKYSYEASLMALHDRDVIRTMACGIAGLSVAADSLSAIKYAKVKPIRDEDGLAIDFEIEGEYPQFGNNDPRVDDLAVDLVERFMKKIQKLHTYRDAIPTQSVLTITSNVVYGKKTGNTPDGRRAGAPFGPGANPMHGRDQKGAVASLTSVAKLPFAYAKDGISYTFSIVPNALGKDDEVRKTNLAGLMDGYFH

Take “truncated YfiD (truncYfiD, residues 61-127) (from UniProt P68066 61-127) (domain or fragment)”: the apparent kcat of acetyl-CoA production by the activated cPFL:truncYfiD complex (coupled assay, 21 °C, per glycyl radical) in assay [1] came out at 186 s⁻¹. The glycyl radical installed by PFL-AE on the 1:1 cPFL:truncYfiD mixture (200 μM each), quantified by EPR in assay [2] came out at 4.1 µM. The glycyl radical installed by PFL-AE on the 1:1 tPFL:truncYfiD mixture (200 μM each), quantified by EPR in assay [3] is 2.7 µM.

“YfiD (spare part protein, autonomous glycyl radical cofactor) (from UniProt P68066 1-127) (natural protein)”: the glycyl radical installed by PFL-AE on the 1:1 cPFL:YfiD mixture (200 μM each), quantified by EPR; no detectable radical for the individual components in assay [2] is 15.9 µM. Besides, the glycyl radical installed by PFL-AE on the 1:1 tPFL:YfiD mixture (200 μM each), quantified by EPR in assay [3] is 0.5 µM. This substance also came in with a Kd in assay [4] of 14 µM.

Source of the values: paper PMC8683613.
